# Source: patent publication US8192946B2, “Assays for detecting pregnancy-associated glycoproteins” (The Curators of The University of Missouri, priority 2008, dated 2012)
# Square brackets hold non-standard residues; d marks the D form. Peptide text beside a SMILES is read from it. * marks the point of attachment. Sta = CC(C)C[C@H](N)[C@@H](O)CC(=O)O; Isovaleryl = CC(C)CC(=O)*
# B1: tsh (control): recombinant equine-TSH-beta expressed and purified in the same manner as the PAGs, negative control (protein)
# chain: FCIPTEYMMHVERKECAYCLTINTTICAGYCMTRDINGKLFLPKYALSQDVCTYRDFMYKTVEIPGCPDHVTPYFSYPVAVSCKCGKCNTDYSDCIHEAIKANYCTKPQKSYVVEFSI
# B2: boPAG-2: recombinant bovine PAG 2 expressed in a baculovirus expression system as FLAG-tagged fusion protein (protein)
# chain: DYKDDDDKIVILPLKKMKTLRETLREKNLLNNFLEEQAYRLSKNDSKITIHPLRNYLDTAYVGNITIGTPPQEFRVVFDTGSANLWVPCITCTSPACYTHKTFNPQNSSSFREVGSPITIFYGSGIIQGFLGSDTVRIGNLVSPEQSFGLSLEEYGFDSLPFDGILGLAFPAMGIEDTIPIFDNLWSHGAFSEPVFAFYLNTNKPEGSVVMFGGVDHRYYKGELNWIPVSQTSHWQISMNNISMNGTVTACSCGCEALLDTGTSMIYGPTKLVTNIHKLMNARLENSEYVVSCDAVKTLPPVIFNINGIDYPLRPQAYIIKIQNSCRSVFQGGTENSSLNTWILGDIFLRQYFSVFDRKNRRIGLAPAV
# B3: poPAG-2: recombinant porcine PAG-2, FLAG-tagged (protein)
# chain: DYKDDDDKLVMIPLTKVKSVRESLREKGLLKNFLKEHPYNMIQNLLSKNSSHVQKFSYQPLRNYLDMVYVGNISIGTPPQQFSVVFDTGSSDLWVPSIYCKSKACVTHRSFNPSHSSTFHDRGKSIKLEYGSGKMSGFLGQDTVRIGQLTSTGQAFGLSKEETGKAFEHAIFDGILGLAYPSIAIKGTTTVIDNLKKQDQISEPVFAFYLSSDKEEGSVVMFGGVDKKYYKGDLKWVPLTQTSYWQIALDRITCRGRVIGCPRGCQAIVDTGTSMLHGPSKAVAKIHSLIKHFEKEYVVPCNARKALPDIVFTINNVDYPVPAQAYIRKYVVPCNARKALPDIVFTINNVDYPVPAQAYIRKNANNNRCYSTFEDIMDTLNQREIWILGDVFLRLYFTVYDEGQNRIGLAQAT
# How the values were obtained:
# Format in all cases: biochemical
# [1] = tested on: native bovine PAG (preparation 7-10); test: inhibition of native PAG peptidase activity by pepstatin A; details: parallel samples in pH 3.5, 4 and 4.5 buffers; FIG. 1
# Description: FIG. 1. pH profile of the activity of native bovine PAG (preparation 7-10) against a fluorescent peptidase substrate. The PAG was isolated by pepstatin affinity chromatography and further purified by anion exchange chromatography. Identical amounts of the 7-10 preparation were mixed with a fluorescent peptidase substrate in the presence of buffers adjusted to different pH levels. The extent of fluorescent product release is indicated on the y-axis and the pH conditions of each reaction are indicated on the x-axis. Parallel samples in the pH 3.5, 4 and 4.5 buffers were treated with pepstatin A, an inhibitor of aspartic peptidases, to determine if any observed activity was from aspartic peptidases.
# In each of the examples shown in FIGS. 1-3, native bovine PAGs were bound to pepstatin-agarose matrix at pH 7 or 7.5, washed and eluted by increasing osmolarity (up to 1 M NaCl), including detergent (1% Triton X-100) and increasing the pH of the elution buffer. Different PAGs bind with differing affinities to the aspartic peptidase inhibitor, pepstatin A, and it is possible to isolate different members of the family by systematically altering binding and elution conditions (e.g. Green et al., 2005; Wooding et al., 2005). The differences in activity and pH optima for each of these preparations are illustrated in FIGS. 1-3. […]
# [2] = tested on: cathepsin D/E FRET substrate; test: anti-FLAG immuno-trap protease assay of recombinant candidate bovine PAGs at pH 3-7
# Experimental: FIGS. 6A and 6B. Relative protease activity, as measured by fluorescence, from an immuno-trap protease assay of several recombinant PAGs isolated with an anti-FLAG monoclonal antibody. The reactions were performed under several pH conditions simultaneously (pH 2.5 to 7.0). Identical concentrations of each recombinant PAG lysate were added to the wells.
# Table 5 and FIGS. 6A and 6B show results of protease activity (fluorescence) from immuno-trap assays of several additional recombinant bovine PAGs that were expressed as fusion proteins with a FLAG epitope tag. The PAGs were immobilized in the wells of an ELISA plate by using anti-FLAG in an immuno-protease assay format (as described above) and were analyzed for their proteolytic activity against the cathepsin D/E FRET substrate at pH increments ranging from 3-7. […] This protein was used as a negative control in the assay to establish the baseline for background fluorescence.
# [3] = tested on: fluorescent cathepsin D/E substrate; test: proteolytic activity of purified recombinant PAGs as a function of pH; details: 20 μM substrate; for pH of maximal activity: buffers of varying pH with 100 mM NaCl, FIGS. 5A, 5B
# Description: FIGS. 5A and 5B. The activity of purified recombinant bovine PAG-2 and -12 (FIG. 5A), and porcine PAG-2 (FIG. 5B), against a fluorescent cathepsin D substrate as a function of pH. In FIG. 5A, triangles represent boPAG-2 activity, which is at a maximum at pH 4, while squares represent boPAG-12 activity. In both panels (A and B), each activity point is normalized by the maximum activity (relative fluorescence units) of each peptidase at its optimal pH. The percent activity is shown on the Y-axis and the pH of respective buffers on the X-axis. The error bars represent standard deviation in results obtained from duplicate reads from two separate experiments.
# Recombinant boPAG-2 and -12 and recombinant porcine PAG-2 (poPAG-2) were tested for proteolytic activity by incubation with 20 μM fluorescent cathepsin D/E substrate (Peptides International, as above) in buffers of varying pH containing 100 mM NaCl. Raw fluorescence data was transformed to % relative activity, with the highest value set at 100%. Maximal activity for boPAG-2 was at pH 4, while maximal activity for boPAG-12 and poPAG-2 was at pH 3.5 (FIGS. 5A and 5B).
molecule,measurement,setting,value
CC(C)CC(=O)N[C@H](C(=O)N[C@H](C(=O)N[C@@H](CC(C)C)[C@@H](O)CC(=O)N[C@@H](C)C(=O)N[C@@H](CC(C)C)[C@@H](O)CC(=O)O)C(C)C)C(C)C [pepstatin A] (Isovaleryl-VV[Sta]A[Sta]-OH),inhibition of peptidase activity,[1],inhibited
B1,proteolytic activity,"[2]; anti-FLAG immuno-trap, pH 3-7, compared with TSH-beta control",does not have proteolytic activity
same,"Relative fluorescent product release, pH 3.0","[2]; pH 3.0, immobilized with anti-FLAG",38349
same,"Relative fluorescent product release, pH 4.0","[2]; pH 4.0, immobilized with anti-FLAG",33908
same,"Relative fluorescent product release, pH 5.0","[2]; pH 5.0, immobilized with anti-FLAG",34996.5
same,"Relative fluorescent product release, pH 6.0","[2]; pH 6.0, immobilized with anti-FLAG",28222.5
same,"Relative fluorescent product release, pH 7.0","[2]; pH 7.0, immobilized with anti-FLAG",26590.5
B2,pH of maximal activity,[3],4
B3,pH of maximal activity,[3],3.5
same,activity at pH 2.5,"[3]; pH 2.5, 100 mM NaCl",showed activity
